{"source": "the DeepSol protein solubility set"}
{"experiment": "soluble on expression in E. coli; label from the status in PepcDB or PDB records"}
{"sequence": "MAHHHHHHMLKLQLDATAIEDELKLSANSKSANTVSSKTPRPDKFAAYHTLRLLFVPIWKRYRFHKQMVWATAIVAKHVLLKVHWRRQRRSERATDTFLHVLRIPRTKLRCAAHLLEGQVVRIQRAFRRHRARVQAVVELNYRKVRRDVEEAYWEAVVTQHEAELAVQQRPFSPVPKAVREVFGARAEARARFGSIQRRTSLLSSAGNSSYDTAVPSNELDVYNFHMIGRLPGSLLRFEMTSAVFAQLRRSAARAHLMDDFSETRARRAGMGGFMEHGDIAPTNTAFVRSRGKCRAQLPCFLPESVYAAILNNTCYLTSLMRDDRKLRAHLRQREHHLESY", "soluble on expression in E. coli": "not soluble"}
{"sequence": "MAHHHHHHMNKEHILFDSFPLTFLSDEVDCSNFEDEQERTYRERIAQMTEELKSLRMEITEKHSIRSMLEEKVAMLQNEEQTKQNNLKYVLNFCDKQMYERELGNFHNHLEQLRKQIQNSNCKIKLLIEKEFKVRKQLQLRYMKLYDLLNERVRYILGDYVKHRKCACAIFAYRQEGQR", "soluble on expression in E. coli": "not soluble"}
{"sequence": "MGAAGDAAIGRESRELMSAANVGRTISRIAHQIIEKTALDDPVGPDAPRVVLLGIPTRGVTLANRLAGNITEYSGIHVGHGALDITLYRDDLMIKPPRPLASTSIPAGGIDDALVILVDDVLYSGRSVRSALDALRDVGRPRAVQLAVLVDRGHRELPLRADYVGKNVPTSRSESVHVRLREHDGRDGVVISRGSHHHHHH", "soluble on expression in E. coli": "soluble"}
{"sequence": "SEDNITVRFVTENDKEGWQRLWKSYQDFYEVSFPDDLDDFNFGRFLDPNIKMWAAVAVESSSEKIIGMINFFNHMTTWDFKDKIYINDLYVDENSRVKGAGGKLIQFVYDEADKLGTPSVYWCTDESNHRAQLLYVKVGYKAPKILYKRKGY", "soluble on expression in E. coli": "soluble"}
{"sequence": "MSARILVVDDIEANVRLLEAKLTAEYYEVSTAMDGPTALAMAARDLPDIILLDVMMPGMDGFTVCRKLKDDPTTRHIPVVLITALDGRGDRIQGLESGASDFLTKPIDDVMLFARVRSLTRFKLVIDELRQREASGRRMGVIAGAAARLDGLGGRVLIVDDNERQAQRVAAELGVEHRPVIESDPEKAKISAGGPVDLVIVNAAAKNFDGLRFTAALRSEERTRQLPVLAMVDPDDRGRMVKALEIGVNDILSRPIDPQELSARVKTQIQRKRYTDYLRNNLDHSLELAVTDQLTGLHNRRYMTGQLDSLVKRATLGGDPVSALLIDIDFFKKINDTFGHDIGDEVLREFALRLASNVRAIDLPCRYGGEEFVVIMPDTALADALRIAERIRMHVSGSPFTVAHGREMLNVTISIGVSATAGEGDTPEALLKRADEGVYQAKASGRNAVVGKAAHHHHH", "soluble on expression in E. coli": "soluble"}
{"sequence": "VVGGTDADEGEWPWQVSLHALGQGHICGASLISPNWLVSAAHCYIDDRGFRYSDPTQWTAFLGLHDQSQRSAPGVQERRLKRIISHPFFNDFTFDYDIALLELEKPAEYSSMVRPISLPDASHVFPAGKAIWVTGWGHTQYGGTGALILQKGEIRVINQTTCENLLPQQITPRMMCVGFLSGGVDSCQGDSGGPLSSVEADGRIFQAGVVSWGDGCAQRNKPGVYTRLPLFRDWIKENTGV", "soluble on expression in E. coli": "soluble"}
{"sequence": "MKVAIVHNSEEKSKQVTKQLTTLLEQNQIQIDNRQPELVISVGGDGTLLSAFHRFNHLLNEVSFLGVHTGHLGFYTDWRDYELKELVESLCIHREKSTSYPLLDVRIRFRDGKPDKHFLALNESTIKRGNRTMVGDVFIKDELFERFRGDGLSISTPTGSTAYNKSIGGAVLHPSINAFQLTEIASLNNRVFRTLGSPIVIAHTEWLEIKLQESDDYFVTVDQLDIYQENIASVCYRIADERIHFASYRHMHFWHRVKDAFIGEDLEHHHHHH", "soluble on expression in E. coli": "soluble"}
{"sequence": "MNKVLINDTTLRDGEQAAGVVFTLEEKVAIAKFLDTIGVPELEVGIPAMGEEEMRAICAISNLGLKANLLAWNRAVISDIKASVACGMERVHIAIPVSGIQIAAKFHGQWRVSLQRLKDCISFAVDQGLWVAVGGEDSSRADENFLLDVALYAQEWGASRFRFCDTVGVLDPFTTYGKVKLLVSALTIPVEVHTHNDFGMATANALAGIKAGASSVNTTVIGLGERAGNAALEEVVMAIKRIYGVDMGIDTPRLLELSQLVAAASGANVPPWKAIVGENTFAHESGIHAHGVLQNPDTYEPFAPEEVGWERRLVVGKHSGRHSVSNLLEQHGIFLNPEETQSVLDAVRQQSIKKKRSLTTEELLNLVKEQR", "soluble on expression in E. coli": "not soluble"}
{"sequence": "RMMEGAIAIADLTVGDVMVPRSQMVSLPVESDLQTITKQMVESGHSRFPVHGENKDEVLGILLAKDLLRGVSANHTITNVHELLRPVGMIPESKKLNVLLKEFRLSHNHMAIVVDEYGGVAGLVTIEDILEQIVGDID", "soluble on expression in E. coli": "soluble"}
